Assay results published in PMC2033583, “Temperature sensitivity for conformation is an intrinsic property of wild-type p53”.

Target: p53 (murine wild-type) (mouse, UniProt P02340 1-390)
Experiment: EMSA; 1,10-phenanthroline, 20 min at 30 C; PAb 421; at least partially resistant to chelator; EMSA on 4% polyacrylamide gels with PAb 421, reticulocyte lysate p53 pre-exposed to OP 20 min at 30 or 37 C; binding buffer, salt and pH not given (as in Hainaut and Milner 1993b)
Conditions: protein: ivt; chain copies: 4; label: 32P

p53 (murine wild-type), sequence (P02340 whole entry): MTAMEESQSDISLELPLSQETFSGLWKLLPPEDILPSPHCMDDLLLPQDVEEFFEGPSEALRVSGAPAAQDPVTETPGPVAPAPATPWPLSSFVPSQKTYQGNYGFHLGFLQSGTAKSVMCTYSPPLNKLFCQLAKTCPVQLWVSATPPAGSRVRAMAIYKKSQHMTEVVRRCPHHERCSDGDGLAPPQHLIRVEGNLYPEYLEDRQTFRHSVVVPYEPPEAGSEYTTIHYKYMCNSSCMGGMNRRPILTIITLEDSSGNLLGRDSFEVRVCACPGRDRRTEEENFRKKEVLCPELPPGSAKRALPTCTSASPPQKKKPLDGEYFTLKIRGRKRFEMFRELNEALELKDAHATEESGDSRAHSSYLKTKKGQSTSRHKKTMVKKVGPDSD

B1: p53 CON (dsDNA)
DNA 1: GGGCATGTCCGGGCATGTCC
DNA 2: GGACATGCCCGGACATGCCC
B1: binds.
